This data set has as its system MS2 coat protein. In words: apparent KD of MS2 coat protein; designed switch direction (-1 OFF switch, 1 ON switch): -1; higher = weaker reporter binding. In short, it runs like this: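 On Illumina chips, designed RNA switches with common flanks were made by stalled E. coli RNA polymerase. Titrations with SNAP-549-labelled MS2 coat protein, doubling from 0.7 or 1.5 nM to 3 µM, were done with no input, with 200 uM small-molecule ligand, or with an oligonucleotide input. Apparent KD is the median per design over clusters, from curve fits of normalised cluster fluorescence.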

The mark [1] stands for this setting: Eterna round: R95, input ligand: microRNA oligo, concentration not stated.
The mark [2] stands for this setting: input ligand: microRNA oligo, concentration not stated.
The mark [3] stands for this setting: Eterna round: R95, input ligand: FMN 200 uM.
Where [4] appears, read: Eterna round: R95, input ligand: none.

In the case of “GUCGAGUGAGGAUAUGGUGAGUAGUGCCUGAGCGCUGCUCACCAGAAGGCACAUGAGGAUCACCCAUGUAUGAC [Mat - Exclusion 4 - Mod of JL - D12] (puzzle: Exclusion 4)”, under setting [1], the “apparent KD of MS2 coat protein” value amounted to 17.8 nM.
Turning to “GUAGAGUAAGGAUAUACUGAAUAGGAUAGAAUGGUUAGAAAGUAGAAGGUACAUGAGGAUCACCCAUGUAAUGU [Excluse me!!!! 19 - Jieux - Exclusion 4] (puzzle: Exclusion 4)”, the “apparent KD of MS2 coat protein” value under setting [1] came out at 20.4 nM.
Take “ACAUGAGGAUCACCCAUGUCAGGCUGGUCCGCUCCGGCUGUUGAGGAUAUAGCACGGUAUCCGCGCUAGAAGGUGAGGGCCGGC [Aenatbe mod 30] (Eterna round: R96, puzzle: Exclusion NG 3)”: the “apparent KD of MS2 coat protein” value (input ligand: FMN 200 uM) amounted to 21.6 nM, the “apparent KD of MS2 coat protein” value under setting [2] was 18 nM and the “apparent KD of MS2 coat protein” value (input ligand: none) was 22.5 nM.
Turning to “UCGGCGCGAGGAUAUGCGGCUGCUGCUUCGGGCCGUGGCGUACAUGAGGAUCACCCAUGUAGAAGGCGCGCCGC [Apr-15 SS2-40] (Eterna round: R96, puzzle: Exclusion 2)”, the “apparent KD of MS2 coat protein” value reads like this: (input ligand: FMN 200 uM) 12.9 nM; under setting [2], 10.4 nM; (input ligand: none) 14.8 nM.
Consider “UGAGCAAGAGGAUAUACAUGACGUGCCGUAGCACGAGGUCUACAUGAGGAUCACCCAUGUAGAAGGCUUGUUCU [Mat - Exclusion 2 - JL Mod - D5] (Eterna round: R97, puzzle: Exclusion 2)”, for which the “apparent KD of MS2 coat protein” value was found to be 170 nM (input ligand: FMN 200 uM) and 34.2 nM (input ligand: none).
Turning to “GUUAGUUAAGGAUAUACAGGGAGCUGCGGCGUCUCGCCGCAACAUGAGGAUCACCCAUGUAGAAGGUGGCCAUU [JL ViennaUCT Enbibi mod 3] (puzzle: Exclusion 2)”, the “apparent KD of MS2 coat protein” value under setting [1] came out at 471 nM.
As to “ACUGAACAUGAGGAUCACCCAUGUAAGGAUAUGCCACACGGGCUACAUAGCCAUCAAAGUAGAAGGUGCUGGGA [Eternabot (Original) Solution 15] (Eterna round: R97, puzzle: Exclusion 1)”, the “apparent KD of MS2 coat protein” value was determined as 20.3 nM (input ligand: FMN 200 uM) and 26.2 nM (input ligand: none).
“GGUGCGUUUGUGAGGAUAUGCUGGUCCUUGGUUCGGCAGAAGGCACAUGAGGAUCACCCAUGUGGUGUCGUACC [salish99_Bmod_Ex4_043] (puzzle: Brourd's mod of Exclusion 4)”: the “apparent KD of MS2 coat protein” value under setting [1] is 15.7 nM.
Turning to “ACAAGCUUUUUGUUCGUCUUAUAAUAAUAAAUAAAGAUAACAUGAGGAUCACCCAUGUAACAAAGACGGACUCAUGU [Sesor Array 18 - Jieux - Sensor v3, turn-off variant 2] (puzzle: Sensor v3, turn-off variant 2)”, the “apparent KD of MS2 coat protein” value is 18.2 nM under setting [3], 279 nM under setting [1] and 16.3 nM under setting [4].
In the case of “UUUUUAUAUGAAGGAUAUACUAAACAUGAGGAUCACCCAUGUGGUGUUGUGAGUGAGAGAGAUAAGUAGAAGGUCAAUUAUUUU [JMF's solution 4] (Eterna round: R96, puzzle: Exclusion NG 2)”, the “apparent KD of MS2 coat protein” value reads like this: (input ligand: FMN 200 uM) 348 nM; under setting [2], 62.6 nM; (input ligand: none) 90.8 nM.
As for “CGCCUCAGAGGAUAUACUACGGUUUCCUCAUGAUGCGGCCAACAUGAGGAUCACCCAUGUAGAAGGCUGAGAAA [EX2 A.5] (Eterna round: R97, puzzle: Exclusion 2)”, the “apparent KD of MS2 coat protein” value is, setting by setting: (input ligand: FMN 200 uM) 17.3 nM; (input ligand: none) 52.2 nM.
Turning to “GGCUGCAAUGUAGGAUAUCUGCACGAUUAGUGCAGAGAAGGACAUGAGGAUCACCCAUGUAUAGUAGCUUCGGCUACAGCAGCC [ENG1-D1] (Eterna round: R96, puzzle: Exclusion NG 1)”, the “apparent KD of MS2 coat protein” value by setting is: (input ligand: FMN 200 uM) 17.1 nM; under setting [2], 14.2 nM; (input ligand: none) 15.6 nM.
Regarding “UUUAAUUUUUUUUUUUUACAAGCUUUUUGCUCGUCUUAUACAUGAGGAUCACCCAUGUGGGUAGAGAGUAAAUUAUC [JMF 59] (puzzle: Sensor v3, turn-off variant 2)”, the “apparent KD of MS2 coat protein” value runs as follows: under setting [3], 16.7 nM; under setting [1], 80.6 nM; under setting [4], 16.1 nM.
For the sequence “AUUGUUUGAUACCUCUAAUACAUGAGGAUCACCCAUGUUAUCGAGGAUAUGCAGAAUAGAUUAGAGCAGAAGGCGAAGUAAUAU [JR_ExcNG3_Sub026] (Eterna round: R96, puzzle: Exclusion NG 3)”, the “apparent KD of MS2 coat protein” value (input ligand: FMN 200 uM) was 31.1 nM, the “apparent KD of MS2 coat protein” value under setting [2] amounted to 13.3 nM and the “apparent KD of MS2 coat protein” value (input ligand: none) is 15.6 nM.
With “CAGUACUGAGGAUAUACAUGAGGAUCACCCAUGUGCUUUAGCUAGGAUACUAGCAUUAGUAGAAGGCAGUACUG [Fiskers Ex 3 828 mod 9] (puzzle: Exclusion 3)”, the “apparent KD of MS2 coat protein” value under setting [1] turned out to be 11.3 nM.
As for “UGUAUAGGAGUGAGGAUAUGGAAACUGGAAAAGGACCAGAAGGCACAUGAGGAUCACCCAUGUGGUUCUCAAGA [Eternabot (Original) Solution 50] (Eterna round: R97, puzzle: Brourd's mod of Exclusion 4)”, the “apparent KD of MS2 coat protein” value came to 1210 nM (input ligand: FMN 200 uM) and 373 nM (input ligand: none).
With “AGUAGUUGUUUCCGUUCUUACAUGAGGAUCACCCAUGUUUCUUGUCGUGCACGCGAUGCUCGUCAGACUACCAGAUG [salish99_TOv1_r3_058] (puzzle: Sensor v3, turn-off variant 1)”, the “apparent KD of MS2 coat protein” value amounted to 52.5 nM under setting [3], 69.9 nM under setting [1] and 61.9 nM under setting [4].
“AGUGCAUGAGGAUAUGCAAAUCGAAAGACGCAAGGGCAAUCACAUGAGGAUCACCCAUGUAGAAGGCGUCGCAC [Eternabot (Original) Solution 17] (Eterna round: R97, puzzle: Exclusion 2)”: the “apparent KD of MS2 coat protein” value runs as follows: (input ligand: FMN 200 uM) 30.7 nM; (input ligand: none) 31.9 nM.
Turning to “AGCAAGCUUUUAAGAUCCUACAUGAGGAUCACCCAUGUGCUCGUCUUAUAACGUACUGUGACGAAAGUCACGGUACG [JL TOV1 3.32] (Eterna round: R97, puzzle: Sensor, turn-off variant 1)”, the “apparent KD of MS2 coat protein” value is, setting by setting: (input ligand: FMN 200 uM) 253 nM; (input ligand: none) 217 nM.
Turning to “ACAUGAGGAUCACCCAUGUACAGGGUUUAGUUUCAUCGUUUGAAGGAUAUACUCAGUUAGUUGUUGUAGAAGGUCACAUUUUGG [JR_ExcNG3_Sub004] (Eterna round: R96, puzzle: Exclusion NG 3)”, the “apparent KD of MS2 coat protein” value by setting is: (input ligand: FMN 200 uM) 138 nM; under setting [2], 108 nM; (input ligand: none) 126 nM.
Consider “GGUGGACAUGAGGAUCACCCAUGUGAGGAUAUCGGCUAUCUACUCGCUGACGGCUGCUCGAGAAGGCACAUUGU [Exclusion 1 V91] (puzzle: Exclusion 1)”, for which, under setting [1], the “apparent KD of MS2 coat protein” value worked out at 54.6 nM.
With “AAAAAACAAGGAUAUACUAAAAAAAAAUGUGUUAAUUUUUCACAUGAGGAUCACCCAUGUAGAAGGUGUUAAAA [JR_Exclusion2_Sub006] (puzzle: Exclusion 2)”, the “apparent KD of MS2 coat protein” value runs as follows: under setting [3], 54.7 nM; under setting [1], 79 nM; under setting [4], 93.6 nM.
In the case of “AGUACUAACACGGAAGUGUUAGUACAAUAAGCUUGUGUUACAUGAGGAUCACCCAUGUCCUCAUAAGCUCGUCUUAU [Mat - Sensor v3 - Turn-off var 2 - D61] (puzzle: Sensor v3, turn-off variant 2)”, the “apparent KD of MS2 coat protein” value is, setting by setting: under setting [3], 113 nM; under setting [1], 12.4 nM; under setting [4], 112 nM.
For the sequence “ACUUGUGUUGAGGAUAUGCGCCGGCUCGCUGGCGCAGAAGGCGGCACAUGAGGAUCACCCAUGUCAGUUCGCGC [salish99_ex6_r004_001] (Eterna round: R97, puzzle: Exclusion 6)”, the “apparent KD of MS2 coat protein” value worked out at 138 nM (input ligand: FMN 200 uM) and 16.8 nM (input ligand: none).
As for “AAUGAUUGACGAGGAUAUUGUGGUAGAUCACGACGAGAAGGCGUAUGUCACAUGAGGAUCACCCAUGUGAGCUUUGUGGAUAGA [Ex NG1 #74] (Eterna round: R96, puzzle: Exclusion NG 1)”, the “apparent KD of MS2 coat protein” value came to 27.1 nM (input ligand: FMN 200 uM), 16.1 nM under setting [2] and 20.7 nM (input ligand: none).
“AACCUGAGGCUUUGCUUUAGGUGUACAUGAGGAUCACCCAUGUAGGAUAUGGUAGGCUUUGCUUACCAGAAGGACAUUGGCGUU [JL ENG3 1.14] (Eterna round: R96, puzzle: Exclusion NG 3)”: the “apparent KD of MS2 coat protein” value was found to be 388 nM (input ligand: FMN 200 uM), 66.2 nM under setting [2] and 97.3 nM (input ligand: none).
In the same order, the values of “UGUGGACAUGAGGAUCACCCAUGUCAGCCGUGUCCACCGAGAGAGGAUAUUGGUCAACCAGGGACUAAGAAGGCUCAGAGCUGG [Eternabot solution 47] (Eterna round: R96, puzzle: Exclusion NG 3)” are 30.3 nM, 37.4 nM and 46.4 nM.
With “CUAGAGUCAGGAUAUACGAGAUCGAAAGAUCGGCGAUCCCUACAUGAGGAUCACCCAUGUAGAAGGGACUCUAG [Mod 11 - Jieux - Exclusion 2] (Eterna round: R97, puzzle: Exclusion 2)”, the “apparent KD of MS2 coat protein” value is, setting by setting: (input ligand: FMN 200 uM) 28.3 nM; (input ligand: none) 13.8 nM.
For the sequence “CCAUGUUAGCAGGAUAUGCAAUAAAUCUUUUAUGCAGAAGGGCUUACAUGAGGAUCACCCAUGUAUUAAGUCAA [JR_E6_Sub078] (puzzle: Exclusion 6)”, the “apparent KD of MS2 coat protein” value by setting is: under setting [3], 118 nM; under setting [1], 36 nM; under setting [4], 49.9 nM.
As to “CCGGAAAAGGAGGAUAUAGGAGUCGAUAGACACCUAGAAGGCCUGACAUGAGGAUCACCCAUGUGUCCUACCGG [Fiskers Ex 6 - 92] (puzzle: Exclusion 6)”, the “apparent KD of MS2 coat protein” value is, setting by setting: under setting [3], 38.3 nM; under setting [1], 17.9 nM; under setting [4], 16.8 nM.

Source of the values: the supplement of paper PMC9170038.
